A short description of data set [1]: Retention of inhibitory activity on storage. The following applies: transformed human AFP preparation. The class given is physicochemical.
For data set [2], the system named is estrogen-stimulated growth of mouse uterus. The following applies: full-length transformed AFP molecule, see references cited; cited from earlier work.

B1: full-length transformed AFP molecule: full-length alpha-fetoprotein transformed by incubation with estradiol to an inhibitor of estrogen-stimulated growth (protein, UniProt P02771 1-609, looked up)
chain: MKWVESIFLIFLLNFTESRTLHRNEYGIASILDSYQCTAEISLADLATIFFAQFVQEATYKEVSKMVKDALTAIEKPTGDEQSSGCLENQLPAFLEELCHEKEILEKYGHSDCCSQSEEGRHNCFLAHKKPTPASIPLFQVPEPVTSCEAYEEDRETFMNKFIYEIARRHPFLYAPTILLWAARYDKIIPSCCKAENAVECFQTKAATVTKELRESSLLNQHACAVMKNFGTRTFQAITVTKLSQKFTKVNFTEIQKLVLDVAHVHEHCCRGDVLDCLQDGEKIMSYICSQQDTLSNKITECCKLTTLERGQCIIHAENDEKPEGLSPNLNRFLGDRDFNQFSSGEKNIFLASFVHEYSRRHPQLAVSVILRVAKGYQELLEKCFQTENPLECQDKGEEELQKYIQESQALAKRSCGLFQKLGEYYLQNAFLVAYTKKAPQLTSSELMAITRKMAATAATCCQLSEDKLLACGEGAADIIIGHLCIRHEMTPVNPGVGQCCTSSYANRRPCFSSLVVDETYVPPAFSDDKFIFHKDLCQAQGVALQTMKQEFLINLVKQKPQITEEQLEAVIADFSGLLEKCCQGQEQEVCFAEEGQKLISKTRAALGV
modifications: full-length estradiol-transformed
In the case of B1, the “time activity is retained” value in data set [1] was “one”. In data set [2], the “inhibition of estrogen-stimulated growth” value is listed as 20-40%.

These data come from patent publication US5674842A, “Growth inhibitory peptide” (Health Research, Incorporated, priority 1994, dated 1997).
